Results from article PMC4451072, “A Linear Epitope in the N-Terminal Domain of CCR5 and Its Interaction with Antibody” (PLoS ONE, 2015).
Entries after “also recorded” stand apart in the source; their conditions may differ. Where two headings read alike, the source gives them in different places.

Key:
hCCR5_1–31 [1] = assay: Epitope mapping with truncated peptides by competitive ELISA; type: binding, human
Description: (§1) The peptide encoding the N-terminal extracellular domain of human CCR5 ([…]-biotin, hCCR5_1–31) was synthesised by the Peptide Synthesis Laboratory, Cancer ResearchUK. The same peptide without the C-terminal cysteine biotin was synthesised by PeptideSynthetics (Fareham PO15 6DP). An analogue of the peptide with sulphated tyrosines at position 10 and 14 was synthesised as described previously and given as a gift by Prof. Fred Naider (City University of New York). The panel of truncated peptides used for epitope mapping (See Results, Subsection “Defining a linear epitope in the N-terminal domain of CCR5”) was synthesised by Sigma (Pepscreen). The chimeric peptide used for immunisation ([…]) was synthesised by the peptide synthesis facility at the University of Ghent. All peptides were >80% pure by HPLC and mass spectroscopy.
The pepscreen panel of CCR5 truncated peptides was screened by competitive ELISA. Antibody supernatant (typically diluted 1 in 1000 or 1 in 4000) was added to N-terminal domain peptide coated ELISA plates in the presence or absence of 1 μg/well of one of the competing peptides. The antibody peptide mixture was incubated overnight, washed and then bound antibody measured as described above.

hCCR5_1–31 [2] = assay: ELISA binding of antibodies to the N-terminal CCR5 peptide; design: species or system human; conditions: peptide coupled to avidin, OD 405 nm
Description: as §1
(§2) 96 well ELISA plates (Nunc) were coated with peptide conjugates (10 μg/ml unless otherwise stated) in coating buffer (0.1 M sodium bicarbonate, pH 8.5), overnight at 4°C. All wells were washed (washing buffer PBS 0.1% Tween-20) and blocked by addition of 2% low fat milk (Tesco) in PBS for at least 1 h at room temperature. […] Unconjugated avidin was used as control coating. […] Bound antibody was detected using alkaline phosphatase coupled rabbit anti-mouse IgG or IgGFab (Sigma) antibody (1:2000 dilution) and substrate (PNPP FAST, Sigma). […]

[3] = system: cell surface CCR5 (expressed on CCR5 transfectants); assay: Affinity of RoAb13 for cell surface CCR5 by flow cytometry (Scatchard plot); type: binding, human; conditions: abstract value, CCR5-transfected cells
Description: (§3) Chinese hamster ovary cells were transfected by electroporation with vectors expressing human or mouse CCR5 in an expression vector containing a neomycin resistance gene (Genecopoeia, #EX-Z0659-M02 and #EX-Mm01826-M02 respectively). G418 resistant cells were cloned by limit dilution and receptor expressing cells were identified by flow cytometry using RoAb13 anti-CCR5 and Rabbit anti-mouse FITC for human CCR5, and PE anti-Mouse CD195 (CCR5) (clone HM-CCR5, Insight Biotechnology) for mouse CCR5.
(§4) CHO cell transfectants (5 × 10^4) were incubated in 10% goat serum (Sigma) and 0.1% sodium azide for 30 min at 4°C. Purified antibodies or mouse sera at various dilutions were added, and incubated for 2–3 h at 4°C. Cells were washed and bound antibody detected using […] FITC or APC conjugates (R&D Systems). The number of bound antibody molecules was quantified in some experiments using Quikfit calibration beads containing known numbers of bound mouse IgG molecules as per manufacturers instructions (DAKO, #K0078).

[4] = system: hCCR5_1–31 analogue with sulphated tyrosines at position 10 and 14; assay: ELISA binding of RoAb13 to sulphated N-terminal CCR5 peptide; design: species or system human
Description: as §1, §2

monocytes = assay: Transwell migration assay, monocytes; type: cell-based, human; conditions: for migration of monocytes to macrophage conditioned medium: 3 h at 37°C, conditioned medium from resting and activated (LPS) macrophages
Experimental: Peripheral blood mononuclear cells and monocyte derived macrophages were prepared from peripheral blood as previously described. The study was approved by the joint University College London / University College London Hospitals NHS Trust Human Research Ethics Committee and written informed consent was obtained from all participants. […] Conditioned media from these cultures were then centrifuged at 10,000g for 5 minutes and stored at -80°C. Polycarbonate transwell inserts (Corning No. 3421, with […] and 6.5 mm diameter) were placed over 500 μL conditioned media or control media or media containing purified chemokines in 24-well plates. […] of freshly isolated PBMC (5x10^6 cells /mL) were loaded into the upper chamber of the transwell, and incubated for 3 hours at 37°C. Transwells were then lifted out of the lower chamber and the contents of the upper chamber were carefully aspirated. Each transwell filter was subsequently tilted to rinse the under surface twice with 200 μL 0.25% Trypsin-EDTA (Gibco) that was allowed to drain into the well (lower chamber). […] The lower chamber cell suspension was collected and fixed with 1% paraformaldehyde in phosphate buffered saline (PBS). […] A FACScalibur flow cytometer (Becton Dickinson) was used with FlowJo (version 9.4.3) analysis software. 10 000 beads were counted to standardised cell count quantitation in each sample and transmigration of cells in the lower chamber was expressed as the proportion of the input.

[5] = system: untransfected controls (CHO cells); assay: Flow cytometry binding of antibodies to untransfected controls; design: species or system Chinese hamster; conditions: normalized to % maximum binding for each antibody
Description: as §3, §4

mouse CCR5 = assay: Flow cytometry binding of antibodies to CHO cells transfected with mouse CCR5; conditions: normalized to % maximum binding for each antibody
Description: as §3, §4

[6] = system: CHO-CCR5 transfected cells; conditions: ref [19]; cited from earlier work
Description: The clear cut inhibitory effects of the antibody even ...

HIV = conditions: cited from earlier work
[7] = system: human CCR5 (CHO cell transfectants); assay: Flow cytometry binding of antibodies to CCR5-transfected CHO cells; conditions: indirect immunofluorescence
Description: as §3, §4

[8] = system: CCR5 on human peripheral blood subpopulations; assay: Expression of CCR5 on human peripheral blood subsets as detected by RoAb13; type: binding; conditions: S2 Fig
Description: Peripheral blood subpopulations were stained using purified RoAb13 Fab fragment directly conjugated with […] as per manufacturer’s instructions.

[9] = system: hCCR5_1–31 N-terminal domain peptide; assay: Affinity of RoAb13 for hCCR5_1–31 peptide by competitive (two-stage) ELISA; type: binding, human; conditions: abstract value
Description: as §1, §2

[10] = system: human peripheral blood leukocytes; assay: Transwell migration assay, peripheral blood leukocytes; type: cell-based; conditions: responses to individual chemokines or inflammatory macrophage conditioned media
Experimental: (§5) Peripheral blood mononuclear cells and monocyte derived macrophages were prepared from peripheral blood as previously described. The study was approved by the joint University College London / University College London Hospitals NHS Trust Human Research Ethics Committee and written informed consent was obtained from all participants. […] Conditioned media from these cultures were then centrifuged at 10,000g for 5 minutes and stored at -80°C. Polycarbonate transwell inserts (Corning No. 3421, with […] and 6.5 mm diameter) were placed over 500 μL conditioned media or control media or media containing purified chemokines in 24-well plates. […] of freshly isolated PBMC (5x10^6 cells /mL) were loaded into the upper chamber of the transwell, and incubated for 3 hours at 37°C. Transwells were then lifted out of the lower chamber and the contents of the upper chamber were carefully aspirated. Each transwell filter was subsequently tilted to rinse the under surface twice with 200 μL 0.25% Trypsin-EDTA (Gibco) that was allowed to drain into the well (lower chamber). […] The lower chamber cell suspension was collected and fixed with 1% paraformaldehyde in phosphate buffered saline (PBS). […] 10 000 beads were counted to standardised cell count quantitation in each sample and transmigration of cells in the lower chamber was expressed as the proportion of the input.

lymphocytes = assay: Transwell migration assay, lymphocytes; type: cell-based, human; conditions: 3 h, conditioned medium from resting and activated macrophages
Experimental: as §5

peptide spanning the whole of 5–25: peptide of the pepscreen panel spanning CCR5 residues 5–25 (VSSPIYDINYYTSEPCQKINV; UniProt P51681 5-25, looked up, fragment)
inhibition of R&D1801 binding to hCCR5_1–31 (hCCR5_1–31 [1]; competing peptide 1 μg/well, overnight, competitive ELISA): completely blocked

B1: RoAb13: mouse monoclonal anti-CCR5 antibody from hybridoma line number PZ3733 (Roche Palo Alto); EMBL LN832627 and LN832628 (antibody, V domains shown)
VH: EVQLQESGGGLVKPGGSLKLSCAASGFTFSTYAMSWVRQTPEKRLEWVASISTGDNTYYTDSVRGRFTISRDNARNILYLQMSSLRSEDTAMYFCTRGRGDRGDLFGYWGQGTLVTVSS
VL: DIVMSQSPSSLAVSVGEKVTMSCKSSQSLLYRGNQMNYLAWYQQKPGQSPKLLIYWASTRESGVPDRFTGSGSGTEFTLTISSVKAEDLTVYYCQQYYTYPRTFGGGTKLEIK
recognition of the synthetic N-terminal peptide (hCCR5_1–31 [2]): recognised the synthetic peptide; also recorded: bound to both linear peptide and native forms of the epitope
affinity for cells [3]: 6e+08 M⁻¹
core epitope recognised (hCCR5_1–31 [1]; competitive ELISA with truncated peptides, defined by inhibition of binding by more than 50%): between aa8 (proline) and 13(asparagine)
binding to sulphated vs non-sulphated peptide ([4]; peptide sulphated at tyrosines 10 and 14): bound more strongly (heteroclytic binding) to sulphated than non-sulphated forms of the peptide; also recorded: binding to peptide was significantly enhanced by the sulphation of target tyrosines
binding to sulphated vs non-sulphated peptide ([4]; peptide sulphated at tyrosines 10 and 14, listed as RoAb 13): binding to the peptide is enhanced by sulfation of tyrosines at positions 10 and 14
migration in response to CCR5 binding chemokines (monocytes): blocks migration of monocytes in response to CCR5 binding chemokines; also recorded: ability to block chemokine induced monocyte migration; also recorded: inhibits migration induced by chemokines which bind CCR5
migration of monocytes to macrophage conditioned medium (monocytes): blocks migration of monocytes; also recorded: inhibits monocyte chemotaxis
migration in response to CCL2 (monocytes; CCL2, S3 Fig): blocked migration
migration in response to CCL3 (monocytes; CCL3, S3 Fig): blocked migration
migration in response to CCL4 (monocytes; CCL4, S3 Fig): blocked migration
migration in response to CXCL12 (monocytes; CXCL12 (acts via CXCR4), S3 Fig): failed to block migration
binding to untransfected controls [5]: less than 5 % of maximum binding
binding to CHO cells transfected with mouse CCR5 (mouse CCR5): less than 5 % of maximum binding
block of binding of CCL3, 4 and CCL5 [6]: only partial ability to block binding of CCL3, 4 and CCL5
block of chemokine induced calcium flux [6]: only partial ability
HIV blocking (HIV; previously shown): block HIV infection; also recorded: potent HIV blocking activity
inhibition of HIV infection (HIV; ref [19],[32]): potent inhibitor of HIV infection
inhibition of HIV infection (HIV; single round and spreading infection assays, ref [19]): inhibit HIV infection, in both single round and spreading infection assays
binding to CCR5-expressing transfectants [7]: bound strongly to CCR5-expressing transfectants; also recorded: quite heterogenous
detection of CCR5 on CD4, CD8 and NK cells [8]: detected CCR5 on a subpopulation of human peripheral CD4, CD8 and NK cells
detection of CCR5 on monocytes and B cells [8]: low levels of CCR5 expression
affinity for peptide [9]: 1.2e+07 M⁻¹
chemokine or conditioned media induced leukocyte migration [10]: effectively blocked chemokine induced migration of human peripheral blood leukocytes

B2: RoAb13 Fab fragment: Fab fragment of RoAb13 produced by papain digestion; PDB 4S2S (antibody, V domains shown)
VH: B1 VH
VL: B1 VL
migration of lymphocytes to macrophage conditioned medium (lymphocytes): not lymphocytes
migration of monocytes to macrophage conditioned medium (monocytes): significant difference from control (T test, p<0.05)
migration of monocytes to macrophage conditioned medium (monocytes; listed as Fab fragment of RoAb13): significantly inhibited the migration of monocytes
